Assay results as given in patent US20230192845A1 (BLINK BIOMEDICAL, published 2023).

T1: rhesus CD96 transiently expressed on CHO cells (rhesus, UniProt P40200 22-585 (human entry))
T1 construct: also called rhesus CD96, short isoform
T1 chain: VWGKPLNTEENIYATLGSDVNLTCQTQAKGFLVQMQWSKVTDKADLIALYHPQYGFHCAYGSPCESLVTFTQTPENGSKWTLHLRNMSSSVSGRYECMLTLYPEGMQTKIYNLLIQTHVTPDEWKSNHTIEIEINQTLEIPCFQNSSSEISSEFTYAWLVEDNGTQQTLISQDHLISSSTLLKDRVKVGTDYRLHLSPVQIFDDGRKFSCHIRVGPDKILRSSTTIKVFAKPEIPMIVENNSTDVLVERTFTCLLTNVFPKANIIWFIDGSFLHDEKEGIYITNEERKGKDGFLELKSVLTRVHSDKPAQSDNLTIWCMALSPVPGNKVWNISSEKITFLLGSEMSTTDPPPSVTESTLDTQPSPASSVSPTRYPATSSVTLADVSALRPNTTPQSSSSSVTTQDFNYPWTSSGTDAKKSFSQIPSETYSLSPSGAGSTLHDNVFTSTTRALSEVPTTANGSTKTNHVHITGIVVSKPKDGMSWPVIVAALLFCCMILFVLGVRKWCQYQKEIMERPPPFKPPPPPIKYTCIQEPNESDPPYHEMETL

T2: human CD96 short isoform v2 expressed on CHO cells (human, UniProt P40200 22-585)
T2 construct: also called hCD96v2; CD96v2; not shown: C-terminal HA-tag
T2 sequence: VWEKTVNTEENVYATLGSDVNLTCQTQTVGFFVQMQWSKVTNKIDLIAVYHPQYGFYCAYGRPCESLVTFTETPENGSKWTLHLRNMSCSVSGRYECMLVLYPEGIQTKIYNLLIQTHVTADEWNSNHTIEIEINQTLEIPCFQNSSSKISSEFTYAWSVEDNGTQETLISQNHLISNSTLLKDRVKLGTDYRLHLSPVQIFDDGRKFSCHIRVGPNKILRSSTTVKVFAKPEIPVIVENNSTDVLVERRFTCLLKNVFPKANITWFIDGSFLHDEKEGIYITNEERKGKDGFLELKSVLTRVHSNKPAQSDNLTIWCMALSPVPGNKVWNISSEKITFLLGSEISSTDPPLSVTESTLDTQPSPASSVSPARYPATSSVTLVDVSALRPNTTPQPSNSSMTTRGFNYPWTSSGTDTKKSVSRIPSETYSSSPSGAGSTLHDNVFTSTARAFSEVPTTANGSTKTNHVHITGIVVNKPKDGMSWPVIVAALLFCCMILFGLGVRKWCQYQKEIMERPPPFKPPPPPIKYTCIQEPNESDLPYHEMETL

T3: mouse CD96 expressed on CHO cells (mouse, UniProt Q3U0X8 22-602)
T3 construct: whole, on cells; also called mCD96
T3 sequence (looked up): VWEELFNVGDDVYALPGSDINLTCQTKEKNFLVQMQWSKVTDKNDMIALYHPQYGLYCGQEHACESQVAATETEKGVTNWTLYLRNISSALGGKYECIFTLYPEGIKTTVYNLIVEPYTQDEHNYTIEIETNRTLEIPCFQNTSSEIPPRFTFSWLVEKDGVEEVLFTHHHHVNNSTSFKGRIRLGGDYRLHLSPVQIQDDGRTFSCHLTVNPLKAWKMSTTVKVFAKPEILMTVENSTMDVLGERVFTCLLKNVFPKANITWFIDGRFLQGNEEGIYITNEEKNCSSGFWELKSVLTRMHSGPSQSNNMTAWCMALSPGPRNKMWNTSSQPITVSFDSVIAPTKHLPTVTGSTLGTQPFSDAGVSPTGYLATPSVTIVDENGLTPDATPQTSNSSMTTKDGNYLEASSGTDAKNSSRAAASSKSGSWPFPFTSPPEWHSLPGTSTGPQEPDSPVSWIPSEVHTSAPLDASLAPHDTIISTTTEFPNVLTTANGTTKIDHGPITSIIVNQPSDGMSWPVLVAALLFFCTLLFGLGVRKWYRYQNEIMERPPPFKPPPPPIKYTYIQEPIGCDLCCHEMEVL


Legend:
[1] = molecular target: T1, rhesus CD96 transiently expressed on …; test: flow cytometry on CHO cells transiently expressing rhesus CD96; antibody at 1 (thin line) and 10 µg/ml (thick dashed line), filled grey = isotype control
Method: FIG. 7: Binding profiles of anti-CD96 antibodies on CHO cells transfected with rhesus CD96. Anti-CD96 antibodies or the corresponding isotype control mAbs were tested for their capacity to recognize rhesus CD96 transiently expressed on CHO cells by flow cytometry. Each histogram represents the overlay of the fluorescence intensity obtained for each antibody tested at 1 (black line) and 10 μg/ml (thick dashed black line) and compared to the fluorescence obtained with an isotypic control (filled grey histogram).
(§1) The capacity of the identified mouse anti-human CD96 antibodies to recognize the CD96 protein from other species was further analyzed by flow cytometry by using CHO cells expressing the mouse or the rhesus CD96. The expression of the species-specific CD96 on CHO cell surface was confirmed by using staining with appropriate anti-CD96 antibodies and flow cytometry on non-fixed cells. The rat anti-mCD96 antibody clone #630612 (R&D Systems) and the candidate BL006-9-1 (positive by ELISA on rhesus CD96) were used to confirm the expression of rhesus CD96, while the clone 6A6 (rat IgG2a, e-Bioscience) was used to verify the expression of mouse CD96.
(§2) Mouse anti-CD96 antibodies and isotype control antibodies were incubated at 10 or 1 μg/mL with CHO cells expressing different CD96 species at +4° C. for 30 minutes.

[2] = molecular target: T2, human CD96 short isoform v2 expressed …; test: FCM, inhibition of hCD155-Fc binding to hCD96v2-CHO cells
Method: All candidates except BL006-2-19 that bound very weakly on hCD96v2 by FCM were tested for their capacity to inhibit the binding of human CD155 to hCD96v2 stably expressed on CHO cells. Human CD96-transfected CHO cells (3×10⁵ cells/well of 96-well plate) were incubated at +4° C. for 30 minutes with serial dilutions of anti-CD96 antibodies or isotype control antibody (in mIgG2a or mIgG2aD265A format) in the presence of 4 μg/mL of biotinylated hCD155-Fc (produced and biotinylated at BliNK).
% inhibition=(1−(MFI_wAb&CD155−MFI_CHO)/(MFI_wCD155−MFI_CHO))×100, where MFI_wAb&CD155 is the Mean Intensity Fluorescence (MFI) obtained with the hCD96-CHO cells incubated with the tested antibody and hCD155-hFc; MFI_CHO is the MFI obtained in the absence of hCD155 and mAbs; and MFI_wCD155 is the fluorescence with hCD155 but without pre-incubation with antibody (0% CD155 binding inhibition). The % of inhibition was plotted against antibody concentration and the IC50 values were calculated by using a nonlinear regression analysis model of the GraphPad Prism software.

[3] = molecular target: T2, human CD96 short isoform v2 expressed …; test: FCM on hCD96v2-CHO cells
Method: FIG. 6: Binding profiles of anti-hCD96 antibodies on human CD96-transfected CHO cells (hCD96v2, short isoform). CHO cells expressing hCD96v2 were incubated with serial dilution of the indicated mIgG1 or mIgG2a anti-CD96 or isotype control antibodies. […] The results are expressed as the difference of mean fluorescence intensity (delta MFI) between cells stained with antibodies and cells without antibodies. Dose response curves were obtained from GraphPad prism software using a non-linear regression fit with a variable slope model (4 parameters). To simplify the reading, results from the various anti-hCD96 candidates are shown on 4 different panels.
The capacity of the identified mouse anti-CD96 antibodies to recognize the cell membrane expressed human CD96 was further analyzed by flow cytometry (FCM) by using CHO cells stably transfected with the CD96 short isoform v2 (CD96v2; Genbank accession number NM_005816, flanked in C-terminus with HA-tag) (SEQ ID NO: 268).
Mouse anti-CD96 antibodies and isotype control antibodies were incubated at various concentrations from 10 μg/mL to 4.6 ng/mL with CHO cells expressing human CD96 at +4° C. for 30 minutes. […] The differences between the mean fluorescence intensity (MFI) obtained for each of the antibody concentration and the intensity obtained in absence of primary antibody (delta-MFI), were calculated and plotted against the concentrations of antibodies.

[4] = molecular target: T3, mouse CD96 expressed on CHO cells; test: FCM on CHO cells expressing mouse CD96
From the text: as §1, §2

binding result [1]	IC50 [2]	Maximal Inhibition Capacity (%) [2]	EC50 [3]	Maximum binding (delta MFI) [3]	binding result [4]	Binder
binds	16.8 nM	100%	4.82 nM	723000 delta MFI	no binding (tested: 1 and 10 µg/mL)	BL006-4-31G1-31K3 (antibody, V domains shown, Recombinant mIgG2a/kappa (also made as mIgG2a-D265A); also called candidate NO 10) VH: QVQLQQSGPELVKPGASVKISCKTSGFTFTDYYINWVKQRPGQGLEWIGWIFPGSGSSFYSEIFKGQATLTVDKSSSTAYMLLSSLTSEDSAVYFCARRNYYGYGAYAMDYWGQGTSVTVSS VL: DIQMNQSPSSLSASLGDTITITCRASQSINFWLSWYQQKPGNIPKLLIYKASNLHTGVPSRFSGSGSGTDFTLTISSLQPEDIATYYCLQGQSYPLTFGGGTKLEIK
no binding (tested: 10 µg/ml)					no binding (tested: 1 and 10 µg/mL)	BL006-4-20G5-20K5 (antibody, V domains shown, Recombinant mIgG2a/kappa (also made as mIgG2a-D265A); also called BL006-4-20G5-20K5 #1; candidate NO 1) VH: EVQLAESGGDLVTPGGSLKLSCAASGFTFSSYGMSWVRQTPDKRLEWVATITHGGSYIYYPDSVKGRFTLSRDNAKNTLYLQMSSLKSEDTAMYYCIRHADYARFAYWGQGTLVTVSA VL: DIQMTQTTSSLSASLGDRVTISCRPSQDISNYLNWYQQKPDGTVKLLIYYTSRLHSGVPSRFSGSGSGTDYSLTISNLEQEDIATYFCQQGNTLPWTFGGGTKLEIK
no binding (tested: 10 µg/ml)					no binding (tested: 1 and 10 µg/mL)	BL006-19-134G5-134K4 (antibody, V domains shown, Recombinant mIgG2a/kappa (also made as mIgG2a-D265A); also called BL006-19-134G5-134K4 #2; candidate NO 7) VH: QVQLQQPGAELVKPGASVKLSCKASDYTFTTYWMHWVKQRPGQGLEWIGMIHPNSDTTLYNEKFRSQATLTVDKSSSTAYIQLSRLTSEDSAVYYCVVTGTNFDYWGQGTTLAVSS VL: QVVLTQSPAIMSASPGEKVTMTCSATSSVSYMYWYQQKPGSSPKPWIYRTSNLASGVPVRFSGSGSGTSYSLTISSMEAEDAATYYCQQWSSNPLTFGGGTKLELK
no binding (tested: 10 µg/ml)					no binding (tested: 1 and 10 µg/mL)	BL006-19-363G1-363K1 (antibody, V domains shown, Recombinant mIgG2a/kappa (also made as mIgG2a-D265A); also called candidate NO 18) VH: QVQLQQPGAELVKPGASVKLSCKASGYTFTTYWIHWVKQRPGQGLEWIGMILPNSGTTIYNEKFRSQATLTVDKSSSAAYMQLSRLTSEDSAVYYCAVTGTNFDYWGQGTTLTVSS VL: QIVLTQSPAIMSASPGEKVTMTCSASSSVSYMYWYQQKPGSSPKPWIYRTSNLASGVPVRFSGSGFGTSYSLTISNMEAEDAATYYCQQWSSNPLTFGTGTKLELK
no binding (tested: 10 µg/ml)					no binding (tested: 1 and 10 µg/mL)	BL006-19-370G9-370K16 (antibody, V domains shown, Recombinant mIgG2a/kappa (also made as mIgG2a-D265A); also called candidate NO 19) VH: QVQLQQSGAELGRPGTSVKMSCKAAGYTFTNYWIGWVKQRPGHGLEWIGDIYPGGGYTNYNEKFKGKATLTADTSSSTAYIQLSSLTSEDSAIYYCARSGYYDGSPLAMDYWGQGTSVTVS VL: QIVLTQSPTIMSASPGEKVTMTCSASSSVSYMHWYQQKSGTSPKRWIYDTSKLASGVPARFSGSGSGTSYSLTISSMEAEDAATYYCQQWSSNPPTFGSGTKLEIK
binds					no binding (tested: 1 and 10 µg/mL)	BL006-19-352G9-352K8 (antibody, V domains shown, Recombinant mIgG2a/kappa (also made as mIgG2a-D265A); also called candidate NO 17) VH: QVQLQQPGAELVKPGASVKLSCKASGYTFTSYWMHWVKQRPGQGLEWIGMIHPNGDITDYNEKFKSKATLAVDESSSTAFMQLNSLTSEDSAFYYCARASYYGSLYWGQGTTLTVSS VL: DIVMTQSQKFMSTSVGDRVSVTCKASQNVGIAVAWYQKKPGQSPKTLIYSASTRYTGVPDRFTGSGSGTDFTLTINDVQSEDLADYFCQQYGSSPLTFGAGTKLELK
		< 5%	14.3 nM	42000 delta MFI		BL006-9-15G1-15K5 (antibody, V domains shown, Recombinant mIgG2a/kappa (also made as mIgG2a-D265A); also called candidate NO 12) VH: QAYLQQSGAELVRPGASVKMSCKASGYTFTSYNMHWVKQTPRQGLEWIGAVIPGNGDSFYNQKFKGKATLTVDKSSSTAYMQLSSLTSEDSAVYFCGRSSSGCIAYWGQGTLVTVSA VL: DIVLTQSPASLAVSLGQRATISCRVSGSVDYDGDSYMNWYQQKPGQPPKLLIYAASNLESGIPARFSGSGSETDFTLNIHPVEEEDAATYYCLQSNEAPWTFGGGTKVEIK
